{
  "source": "IntAct's records for PubMed 21070972",
  "parents": {"B1": {"name": "Cell division control protein 48 (Saccharomyces cerevisiae), P25694 (parent)", "chain": "MGEEHKPLLDASGVDPREEDKTATAILRRKKKDNMLLVDDAINDDNSVIAINSNTMDKLELFRGDTVLVKGKKRKDTVLIVLIDDELEDGACRINRVVRNNLRIRLGDLVTIHPCPDIKYATRISVLPIADTIEGITGNLFDVFLKPYFVEAYRPVRKGDHFVVRGGMRQVEFKVVDVEPEEYAVVAQDTIIHWEGEPINREDEENNMNEVGYDDIGGCRKQMAQIREMVELPLRHPQLFKAIGIKPPRGVLMYGPPGTGKTLMARAVANETGAFFFLINGPEVMSKMAGESESNLRKAFEEAEKNAPAIIFIDEIDSIAPKRDKTNGEVERRVVSQLLTLMDGMKARSNVVVIAATNRPNSIDPALRRFGRFDREVDIGIPDATGRLEVLRIHTKNMKLADDVDLEALAAETHGYVGADIASLCSEAAMQQIREKMDLIDLDEDEIDAEVLDSLGVTMDNFRFALGNSNPSALRETVVESVNVTWDDVGGLDEIKEELKETVEYPVLHPDQYTKFGLSPSKGVLFYGPPGTGKTLLAKAVATEVSANFISVKGPELLSMWYGESESNIRDIFDKARAAAPTVVFLDELDSIAKARGGSLGDAGGASDRVVNQLLTEMDGMNAKKNVFVIGATNRPDQIDPAILRPGRLDQLIYVPLPDENARLSILNAQLRKTPLEPGLELTAIAKATQGFSGADLLYIVQRAAKYAIKDSIEAHRQHEAEKEVKVEGEDVEMTDEGAKAEQEPEVDPVPYITKEHFAEAMKTAKRSVSDAELRRYEAYSQQMKASRGQFSNFNFNDAPLGTTATDNANSNNSAPSGAGAAFGSNAEEDDDLYS", "partner": "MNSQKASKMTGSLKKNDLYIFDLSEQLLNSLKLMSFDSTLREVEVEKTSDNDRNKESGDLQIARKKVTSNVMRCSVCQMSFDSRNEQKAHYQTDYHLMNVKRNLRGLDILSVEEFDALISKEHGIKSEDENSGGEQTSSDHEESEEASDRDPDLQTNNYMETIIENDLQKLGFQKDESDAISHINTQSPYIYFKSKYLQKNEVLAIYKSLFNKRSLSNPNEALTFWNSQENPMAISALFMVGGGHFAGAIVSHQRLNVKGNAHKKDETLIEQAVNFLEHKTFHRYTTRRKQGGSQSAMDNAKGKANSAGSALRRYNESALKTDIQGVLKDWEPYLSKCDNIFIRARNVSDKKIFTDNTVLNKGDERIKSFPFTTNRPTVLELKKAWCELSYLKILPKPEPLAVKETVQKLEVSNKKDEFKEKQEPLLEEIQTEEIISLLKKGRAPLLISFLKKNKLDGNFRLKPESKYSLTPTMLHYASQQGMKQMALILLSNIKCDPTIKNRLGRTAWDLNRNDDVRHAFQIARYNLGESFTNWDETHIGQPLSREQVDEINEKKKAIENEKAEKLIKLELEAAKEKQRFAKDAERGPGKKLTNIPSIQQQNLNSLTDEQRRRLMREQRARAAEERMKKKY"}, "B2": {"name": "tRNA endonuclease ANKZF1 (Mus musculus), Q80UU1 (parent)", "chain": "MAKPAGDAAVGSRSGELFLPSVSSSATSPAPSAAPAPASVSLLSLNGEAPLIRGLSLVSQAPGEALAWAPRTSCPGENTSSGGKVSPYSLEISEKLFCSACDQIFQNHQEQREHYKLDWHRFNLKQRLKNKPLLSASDFEQQSSTGDLSSISGSDDTDSSSEEDLLPLDEGRAESEKPNRPPGFYPHRVLFKNAQGQFLYAYRCVLGPHQIPPEKAELLLQNLQNGGPRYYVVLMAAAGHFAGAIFQGREVVAHKTFHRYTVRAKRGTAQGLQDAHGRASRSAGANLRRYNEAMLYKDVRNLLAGPIWSKALGEAETVLFRAPRSGRSLFFGGQGAPLQRDDPRLWDIPLTTRRPTFGELQRVLHKLTTLQVYDEDPREMVRFHSPETHWKPVREERKKDTEKEKTKVPSDANKPLGQDEEPLKQGSESQEEDGSEVELELVELTLGTLDLREFEVLPKRRRRRKKKERSQEQQCGAHGPLPQQPQDEPFSQPTQEVETPLDTLVYEAKAPGQPELWDTLLAACRAGEVEVLKLQLATGLVDPGVKSLLNAPLGSGGFTLLHAAAAAGRGLVVRLLLEAGADPTVQDSRARPPYTVAADKSTRNEFRRFMEKNLDAYDYNKARVPGPLTQEMEARQATRKKEQKAARRQREQQQRKQREQEEQEQEEQRRFAALSDREKRALAAERRLAAQLGAPSPPVPDSAVASAGRCWSCGVSLQGLIPFHYLDFSFCSTRCLRDHRSQAGRPSS"}},
  "data": [
    {"variants_of": "B1", "conditions": "with vms1_yeast VMS1, Q04311", "values": [
      {"variant": "S565E", "effect of a mutation on the interaction": "decreasing interaction strength"}
    ]},
    {"variants_of": "B2", "conditions": "with tera_mouse Vcp", "values": [
      {"variant": "E685A;R686A;R687A", "effect of a mutation on the interaction": "decreasing interaction strength"}
    ]}
  ]
}
